In the supplement of paper PMC7877785:
± gives the uncertainty stated by the source.

Assay: self-splicing fitness, log relative to wild type (ln ratio); higher = more splicing; Tetrahymena group I intron in knt gene, E. coli kanamycin selection, DiMSum; sequences stand for … in CUCUCU…GGAGGGAAAAGUUAUCAGGCAUGCACCUGGUAGCUAGUCUUUAAACCAAUAGAUUGCAUCGGUUUAAAAGGCAAGACCGUCAAAUUGCGGGAAAGGGGUCAACAGCCGUUCAGUACCAAGUCUCAGGGGAAACUUUGAGAUGGCCUUGCAAAGGGUAUGGUAAUAAGCUGACGGACAUGGUCCUAACCACGCAGCCAAGUCCUAAGUCAACAGAUCUUCUGUUGAUAUGGAUGCAGUUCACAGACUAAAUGUCGGUCGGGGAAGAUGUAUUCUUCUCAUAAGAUAUAGUCGGACCUCUCCUUAAUGGGAGCUAGCGGAUGAAGUGAUGCAACACUGGAGCCGCUGGGAACUAAUUUGUAUGCGAAAGUAUAUUGAUUAGUUUUGGAGUACUCGUGGUCG
How it was run: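 Six replicate transformations of E. coli BL21(DE3) with a pET-22b(+) library were grown overnight at 37°C or 30°C. The library randomised all eight P1ex-region intron nucleotides, the intron lying in the knt kanamycin-resistance gene, and plates were LB agar with or without 25 μg/mL kanamycin plus 100 μg/mL carbenicillin, 50 μM IPTG and 0.2% rhamnose. Pooled colonies were amplicon-sequenced on an Illumina HiSeq 2500, and fitness is the DiMSum error-weighted combination of wild-type-normalised replicate fold changes, kanamycin versus none.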

Sequence | self-splicing fitness (ln) (30 °C) | self-splicing fitness (ln) (37 °C)
UAUAAGCAAUAUUACGCGGU | -3.64 ± 0.26 | -3.54 ± 0.34
UACAAGCAAUAUUACGGUCG | -0.0495 ± 0.068 | -0.0985 ± 0.1
UCUCAGCAAUAUUACGCAAC | -4.04 ± 0.39 | 
UCGAAGCAAUAUUACGGUGC | -2.62 ± 0.25 | 
GCAAAGCAAUAUUACGUUUG | -4.2 ± 0.17 | -3.24 ± 0.15
CAAUAGCAAUAUUACGGAAG | -1.36 ± 0.074 | -0.459 ± 0.09
GCAUAGCAAUAUUACGAGGU | -3.73 ± 0.4 | -2.07 ± 0.4
GCGCAGCAAUAUUACGACUA | -0.643 ± 0.12 | 0.154 ± 0.11
AGAGAGCAAUAUUACGGCUU | -1.65 ± 0.16 | -1.15 ± 0.25
GUGAAGCAAUAUUACGCCUA | -0.415 ± 0.11 | -0.226 ± 0.17
AACGAGCAAUAUUACGGCGC | -2.14 ± 0.18 | -1.31 ± 0.16
GGGCAGCAAUAUUACGUAUU | -0.944 ± 0.061 | 0.0363 ± 0.074
UGAGAGCAAUAUUACGCCAA |  | -1.98 ± 0.37
AUAGAGCAAUAUUACGCUCU | -2.65 ± 0.28 | -1.32 ± 0.42
UCCCAGCAAUAUUACGCCUG | -3.13 ± 0.26 | -1.8 ± 0.23
UCUCAGCAAUAUUACGGCAC | -2.33 ± 0.24 | -1.79 ± 0.38
UACUAGCAAUAUUACGUACA | -1.56 ± 0.12 | -0.448 ± 0.13
AACCAGCAAUAUUACGUAUG | -2 ± 0.076 | -0.882 ± 0.072
CUCAAGCAAUAUUACGUACC | -4.45 ± 0.34 | -2.04 ± 0.23
CCAUAGCAAUAUUACGUUCU | -3.64 ± 0.25 | -3.4 ± 0.32
CUAAAGCAAUAUUACGGGAU | -1.86 ± 0.087 | -0.984 ± 0.12
CCCCAGCAAUAUUACGCUGA | -3.97 ± 0.2 | -2.42 ± 0.17
CUCUAGCAAUAUUACGUAAG | -1.57 ± 0.11 | -0.426 ± 0.15
UAAUAGCAAUAUUACGGUAC | -3.69 ± 0.43 | -2.37 ± 0.37
ACGCAGCAAUAUUACGAUGG | -1.82 ± 0.097 | -1.59 ± 0.13
CCAGAGCAAUAUUACGAUAU | -2.51 ± 0.23 | -3.19 ± 0.37
UAGGAGCAAUAUUACGGUUA | -1.64 ± 0.12 | 0.0427 ± 0.11

Sequence | self-splicing fitness (ln) (30 °C) | self-splicing fitness (ln) (37 °C)
UAGCAGCAAUAUUACGACCC |  | -0.938 ± 0.41
AUAGAGCAAUAUUACGUACG | -2.22 ± 0.2 | -1.53 ± 0.23
UGGUAGCAAUAUUACGUCGG | -1.21 ± 0.12 | -0.18 ± 0.15
AAAUAGCAAUAUUACGCUGA | -2.31 ± 0.16 | -1.29 ± 0.18
AAUUAGCAAUAUUACGCAGU | -2.78 ± 0.16 | -1.3 ± 0.2
CGUGAGCAAUAUUACGCUUU | -2.54 ± 0.35 | -1.98 ± 0.28
CACAAGCAAUAUUACGGCAA | -2.21 ± 0.1 | -1.55 ± 0.089
CAUUAGCAAUAUUACGUCGA | -2.75 ± 0.14 | -2.05 ± 0.12
UCUGAGCAAUAUUACGUCUU | -2.36 ± 0.21 | -2.9 ± 0.24
CCAAAGCAAUAUUACGAAUA | -3.55 ± 0.32 | -1.51 ± 0.18
GAUCAGCAAUAUUACGGUAG | -0.683 ± 0.084 | 0.269 ± 0.1
UCGUAGCAAUAUUACGUAUU | -3.9 ± 0.28 | -0.594 ± 0.14
UGAGAGCAAUAUUACGAGCA |  | 0.211 ± 0.27
AAGUAGCAAUAUUACGUAAA | -1.09 ± 0.095 | -0.434 ± 0.14
UAAUAGCAAUAUUACGAGCU | -3.02 ± 0.29 | -1.79 ± 0.3
AUUUAGCAAUAUUACGUAAU | -0.35 ± 0.082 | -0.32 ± 0.12
UUAGAGCAAUAUUACGCUGC |  | -2.29 ± 0.37
AACAAGCAAUAUUACGAGAC | -1.88 ± 0.11 | -2.67 ± 0.19
CCCAAGCAAUAUUACGGAUU | -2.56 ± 0.12 | -2.71 ± 0.16
CUAAAGCAAUAUUACGCGGU | -1.44 ± 0.097 | -1.2 ± 0.094
ACAGAGCAAUAUUACGCGCA | -3.09 ± 0.26 | -0.798 ± 0.18
CAAUAGCAAUAUUACGCAGG | -1.75 ± 0.13 | -0.433 ± 0.11
GCUCAGCAAUAUUACGACGU | 0.0949 ± 0.072 | 0.267 ± 0.079
AGCGAGCAAUAUUACGACCG | -1.98 ± 0.23 | -1.84 ± 0.32
GACCAGCAAUAUUACGUUAC | -1.65 ± 0.052 | -0.38 ± 0.067
CAGAAGCAAUAUUACGAUAU | -3.56 ± 0.2 | -2.53 ± 0.15
GUAAAGCAAUAUUACGCGUU | -1.65 ± 0.088 | -0.906 ± 0.099

Sequence | self-splicing fitness (ln) (30 °C) | self-splicing fitness (ln) (37 °C)
GAAGAGCAAUAUUACGAGCA |  | -1.33 ± 0.33
GUAGAGCAAUAUUACGAAGC | -2.62 ± 0.24 | -0.723 ± 0.26
GCGUAGCAAUAUUACGCUCA |  | -0.161 ± 0.23
AGACAGCAAUAUUACGUCAA | -1.68 ± 0.1 | -1.35 ± 0.09
CCAGAGCAAUAUUACGUCUC | -3.23 ± 0.15 | -2.78 ± 0.23
CAUCAGCAAUAUUACGACUG | -0.425 ± 0.084 | -0.238 ± 0.098
ACGUAGCAAUAUUACGUGGC | -2.94 ± 0.17 | -2.98 ± 0.26
GGGUAGCAAUAUUACGUGUG | -1.65 ± 0.11 | -1.24 ± 0.12
GAACAGCAAUAUUACGUAAG | -1.06 ± 0.083 | -0.059 ± 0.093
AGGCAGCAAUAUUACGGUAA | -2.35 ± 0.088 | -1.75 ± 0.076
AAAUAGCAAUAUUACGGUCA | -0.724 ± 0.069 | 0.0582 ± 0.071
UGUUAGCAAUAUUACGGGAA | -1.84 ± 0.24 | -0.696 ± 0.2
GUAUAGCAAUAUUACGUCUA | -0.881 ± 0.17 | -1.01 ± 0.18
UGAUAGCAAUAUUACGAUUA | -0.749 ± 0.11 | -0.000856 ± 0.1
CAGUAGCAAUAUUACGAUGG | -0.609 ± 0.077 | -0.119 ± 0.11
UAGCAGCAAUAUUACGAUCG | -0.76 ± 0.093 | -0.0334 ± 0.12
GUGGAGCAAUAUUACGACUA |  | -0.509 ± 0.37
CUGCAGCAAUAUUACGGAAG | -1.56 ± 0.072 | -0.784 ± 0.095
AUCUAGCAAUAUUACGCCCG | -0.765 ± 0.38 | -0.733 ± 0.3
GGAUAGCAAUAUUACGGCGU | 0.322 ± 0.093 | 0.626 ± 0.1
CGUGAGCAAUAUUACGCCAA | -3.41 ± 0.36 | 
CAUUAGCAAUAUUACGGAGG | -0.36 ± 0.11 | -0.878 ± 0.16
GGCAAGCAAUAUUACGGCGC | -0.3 ± 0.082 | -0.265 ± 0.12
GAUAAGCAAUAUUACGAUUC | -1.39 ± 0.14 | -1.41 ± 0.17
AUGGAGCAAUAUUACGAUGA | -2.98 ± 0.41 | -1.36 ± 0.46
